According to patent publication US20200277359A1 (published 2020):
Substitutions are numbered along the chain they refer to.

Tests used:
[1] = molecular target: T1, Recombinant CHIKV E2 ectodomain protein (corresponding to the CHIKV-LR2006 strain) (Chikungunya virus strain LR2006); assay: ELISA on coated E2 ectodomain, mAb at 10 µg/mL
T1 construct: extracellular domain; also called CHIKV-LR2006 E2 ectodomain; purified E2 protein

Recombinant CHIKV p62-E1 = molecular target: T2, Recombinant CHIKV p62-E1 (Chikungunya virus); assay: SPR (Biacore T100), IgG captured on anti-human IgG, p62-E1 injected
T2 construct: also called soluble CHIKV p62-E1; monomeric E1 protein

B1: human mAb 5O14 (antibody, V domains shown)
VH: QVQLVQSGGRVVQAGRSLRLSCAASGFTFSMYGVHWVRQAPGKGLEWVAVIWNDGSKEYYGDSVKGRFTISRDNSRNTLYLQMNSLRVDDTAVYFCARDGIPDPERGDYGGLDYWGQGTLVTVSS
VL: QTVVTQFPSSPFASVGDGVTITCRARQSISSYVNWYQQKPGKAPKLLIYATSSLQSGVPSRFSGSGYGTDFTLTISGLQPEDFATYYCQQSYSFPRTFGQGTKVEIK
OD450 [1]: > 1 od
Kd (Recombinant CHIKV p62-E1): 1.15 nM
koff (Recombinant CHIKV p62-E1): 0.000911 s⁻¹
kon (Recombinant CHIKV p62-E1): 790000 M⁻¹ s⁻¹
t1/2 (Recombinant CHIKV p62-E1): 13 min

B2: human mAb 4J21 (antibody, V domains shown)
VH: QVQLVQSGSELKKPGASVKVSCKASGYSFTSYSINWVRQAPGQGPEWMGWIDTNTGNPTYAQDFAGRFVFSLDTSVTTAYLQISSLKAGDTAVYYCATYYVDLWGSYRQDYYGMDVWGHGTLVTVSS
VL: QSVVTQPPSVSGTPGQGVTISCSGGSSNIGSNPVNWYQMVPGTAPKLLLYTNNQRPSGVPDRFSGSKSGTSASLAINGLQSEDEADYYCAVWDDSLSGRWVFGGGTKLTVL
OD450 [1]: 0.5 to 0.99 od
t1/2 (Recombinant CHIKV p62-E1): 186 min

B3: human mAb 2C2 (antibody, V domains shown)
VH: QVQLVQSGGGLVQPGRSLTLSCAASGFTFDVYAMHWVRQAPGKGLEWVAGISWNSGSVGYADSMKGRFTISRDNAKNSLYLQINSLRAEDTALYYCAKAFWFGELSGYGMDVWGQGTLVTVSS
VL: QAVVTQPPSASGFPGQSVTISCTGTSSDVGSYNYVSWYQQHPGKAPKLIIYAVTRRPSGVPERFSGSKSGNTASLTVSGLQAEDEADYYCTSYAGNNKDVFGTGTKVTVL
t1/2 (Recombinant CHIKV p62-E1): 19 min

B4: human mAb 2B4 (antibody, V domains shown)
VH: QVQLVQSGSELKKPGASVKVSCKASGYSFTSYSINWVRQAPGQGPEWMGWIDTNTGNPTYAQDFAGRFVFSLDTSVTTAYLQISSLKAGDTAVYYCATYYVDLWGSYRQDYYGMDVWGH
VL: B2 VL with V4L, V10A, G17R, L108V
OD450 [1]: 0.5 to 0.99 od
